Results on 6 molecules are retold here after paper PMC5937523 (Biochemistry, 2017).

One experiment has as its target T1, KDAC6 (Homo sapiens, UniProt Q9UBN7).
T1 sequence (Q9UBN7 1-1215): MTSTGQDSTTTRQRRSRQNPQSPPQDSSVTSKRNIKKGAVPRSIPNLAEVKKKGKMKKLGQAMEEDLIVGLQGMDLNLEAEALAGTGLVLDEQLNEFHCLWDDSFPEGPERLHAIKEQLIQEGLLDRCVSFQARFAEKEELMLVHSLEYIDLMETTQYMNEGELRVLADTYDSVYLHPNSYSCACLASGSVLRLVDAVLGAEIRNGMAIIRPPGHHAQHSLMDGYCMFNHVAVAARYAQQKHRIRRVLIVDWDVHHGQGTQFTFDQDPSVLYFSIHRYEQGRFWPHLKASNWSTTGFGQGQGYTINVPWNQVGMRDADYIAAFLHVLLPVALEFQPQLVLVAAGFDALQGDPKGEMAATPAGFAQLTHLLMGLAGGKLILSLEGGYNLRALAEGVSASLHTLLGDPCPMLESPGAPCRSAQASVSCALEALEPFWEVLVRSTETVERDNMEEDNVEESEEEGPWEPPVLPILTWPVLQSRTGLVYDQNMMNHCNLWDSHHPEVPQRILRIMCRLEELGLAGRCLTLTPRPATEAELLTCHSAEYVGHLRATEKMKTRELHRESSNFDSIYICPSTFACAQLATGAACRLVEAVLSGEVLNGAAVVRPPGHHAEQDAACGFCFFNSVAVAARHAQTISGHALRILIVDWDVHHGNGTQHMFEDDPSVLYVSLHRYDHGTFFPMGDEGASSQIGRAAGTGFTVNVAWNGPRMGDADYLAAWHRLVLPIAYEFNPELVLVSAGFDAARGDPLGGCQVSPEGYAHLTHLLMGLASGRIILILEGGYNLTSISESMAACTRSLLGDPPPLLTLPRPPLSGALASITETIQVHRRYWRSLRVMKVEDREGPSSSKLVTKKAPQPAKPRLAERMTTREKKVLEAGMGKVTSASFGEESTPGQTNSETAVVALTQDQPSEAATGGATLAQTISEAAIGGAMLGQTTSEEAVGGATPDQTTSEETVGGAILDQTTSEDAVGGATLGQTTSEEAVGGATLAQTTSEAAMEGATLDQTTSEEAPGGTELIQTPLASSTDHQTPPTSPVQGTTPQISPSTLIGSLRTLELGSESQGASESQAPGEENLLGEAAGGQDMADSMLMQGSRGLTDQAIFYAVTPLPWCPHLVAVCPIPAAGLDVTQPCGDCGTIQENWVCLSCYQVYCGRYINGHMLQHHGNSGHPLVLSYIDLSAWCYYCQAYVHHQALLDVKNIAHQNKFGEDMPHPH

Experiment [1] has as its target T2, human KDAC8 (lysine deacetylase 8) (human) (UniProt Q9BY41).
T2 sequence: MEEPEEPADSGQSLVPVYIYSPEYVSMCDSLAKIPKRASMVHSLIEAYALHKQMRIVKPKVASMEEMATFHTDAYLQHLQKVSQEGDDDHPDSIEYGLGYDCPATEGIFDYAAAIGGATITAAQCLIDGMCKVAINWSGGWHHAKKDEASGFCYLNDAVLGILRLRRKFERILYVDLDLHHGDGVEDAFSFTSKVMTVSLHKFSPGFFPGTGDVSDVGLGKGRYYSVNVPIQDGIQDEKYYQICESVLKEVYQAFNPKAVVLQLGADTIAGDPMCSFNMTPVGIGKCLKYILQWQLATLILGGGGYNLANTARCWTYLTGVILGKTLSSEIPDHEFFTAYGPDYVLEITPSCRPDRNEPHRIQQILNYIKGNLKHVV

Experiment [2] addresses KDAC6 (lysine deacetylase 6) (human) (UniProt Q9UBN7).

Regarding `O=C(CCCCCCC(=O)Nc1ccccc1)NO` [SAHA, suberoylanilide hydroxamic acid], the “SAHA inhibition of KDAC6 in the presence and absence of AMC” value on KDAC6 is “comparable”.
Consider RG{K-ac} (peptide), for which, in experiment [1], the KM of steady-state deacetylation kinetics (fluorescamine assay, 25 °C) was over 5000 µM.
Take {K-ac}W (peptide): the values for the KM of steady-state deacetylation kinetics (fluorescamine assay, 25 °C) in experiment [1] and in experiment [2] were over 5000 µM and 70 µM, respectively.
In the case of Ac-RHK(Ac)K(Ac)W-NH2 [RH{K-ac}{K-ac}W], the KM of steady-state deacetylation kinetics (fluorescamine assay, 25 °C) in experiment [1] was 1200 µM.
For Ac-RGK(Ac)W-NH2 [RG{K-ac}W], in experiment [1], the KM of steady-state deacetylation kinetics (fluorescamine assay, 25 °C) was 2700 µM.
Regarding Ac-RHK(Ac)K(Ac)-NH2 [RH{K-ac}{K-ac}], the KM of steady-state deacetylation kinetics (fluorescamine assay, 25 °C) was 3100 µM in experiment [1] and 370 µM in experiment [2].
